# Where no end group is shown, it is not given here. [ ]: non-standard residue; d: D form. GABA = NCCCC(=O)O; βAla = NCCC(=O)O
# Key:
# human hepatocytes = assay: Hepatocyte cell viability; assay type: cell-based; conditions: 40 μM
# Description: Immortalized myoblasts from healthy individual or DM1 patient with 2600 CTG repeats were cultivated in a growth medium consisting of a mix of M199:DMEM (1:4 ratio; Life technologies) supplemented with 20% FBS (Life technologies), 50 μg/ml gentamycin (Life technologies), 25 μg/ml fetuin, 0.5 ng/ml bFGF, 5 ng/ml EGF and 0.2 μg/ml dexamethasone (Sigma-Aldrich). Myogenic differentiation was induced by switching confluent cell cultures to DMEM medium supplemented with 5 μg/ml insulin (Sigma-Aldrich) for myoblasts. For treatment, WT or DM1 cells are differentiated for 4 days. Then, medium was changed with fresh differentiation medium with peptide-PMOs at a 1, 2, 5 10, 20 or 40 μM concentration. Cells were harvested for analysis 48 h after treatment. Cell viability was quantified in after 2 days of transfection of peptide-PMOs at 40 μM in human hepatocytes or at a 1, 2, 5 10, 20 or 40 μM concentration in human myoblasts using a fluorescent-based assay (Promega).
# [1] = Recovery time of mice after intravenous injection of peptide-PMO-CAG7; assay type: in vivo, C57BL6 mice
# Description: Animal experiments and ASO injections. Experiments were carried out in the University of Oxford according to UK legislation. The intravenous injections in HSA-LR C57BL/6 mice were performed by single or repeated administrations via the tail vein. Doses of 30, 12.5, 7.5 and 5 mg/kg of peptide-PMO-CAG7 (SEQ ID NO: 81) were diluted in 0.9% saline and given at a volume of 5-6 μL/g of body weight. KIM-1 levels in C57BL6 female mice measured by ELISA (R&D cat #MKM100) with samples diluted to fit within standard curve. Values were normalised to urinary creatinine levels (Harwell) to account for urine protein concentration.
# exon skipping = conditions: in a conjugate with a therapeutic molecule; cited from earlier work
# [2] = CPP carrier; cited from earlier work
substance,measurement,setting,value
"Ac-RXRRBRRXR-YQFLI-RXRBRXR-(B) [pip6a, reference compound]",percentage hepatocyte cell viability,human hepatocytes,cell mortality
same,"recovery time after injection, time AV ± SD","[1]; 12.5 mg/kg, HSA-LR mouse, 8-12 weeks",>60 min
Ac-RRRRRR-(G) (Ac-RRRRRRG; also: conjugated therapeutic molecule via glycine linker) [R6Gly],efficacy in inducing exon skipping,exon skipping,reduced efficacy
same,toxicity,[2],reduced toxicity
Ac-RBRRBRFQILYBRBR-B [DPEP1.9],"recovery time after injection, time AV ± SD","[1]; 7.5 mg/kg, HSA-LR mouse, 8-12 weeks",0 min
same,"recovery time after injection, time AV ± SD","[1]; 30 mg/kg, HSA-LR mouse, 30 weeks",>60 min
same,"recovery time after injection, time AV ± SD","[1]; 4× 7.5 mg/kg repeated injections, HSA-LR mouse, 8-12 weeks",0 min
same,"recovery time after injection, time AV ± SD","[1]; 6× 5 mg/kg repeated injections, HSA-LR mouse, 8-12 weeks",0 min
Ac-RBRRBRRFQILYRBHBH-Ab (Ac-R[βAla]RR[βAla]RRFQILYR[βAla]H[βAla]H-{GABA-(CAG)7 PMO}) [DPEP3.1a],"recovery time after injection, time AV ± SD","[1]; 30 mg/kg, WT mouse, 8-12 weeks",10 min
"Ac-RBRRBRFQILYBRBR-E (Ac-R[βAla]RR[βAla]RFQILY[βAla]R[βAla]RE; also: Glu linker to [CAG]7 PMO, attachment not given here) [DPEP1.9b]","recovery time after injection, time AV ± SD","[1]; 30 mg/kg, WT mouse, 8-12 weeks",15 min

# From US12465646B2, “Linkers” (Oxford University Innovation Limited, priority 2018, dated 2025)
